Columns and labels:
[1] = target: T1, METTL7A (TMT1A1; N-GST-METTL7A) (Homo sapiens, UniProt Q9H8H3); experiment: TSL S-methylation, TMSL formation by LC-MS/MS, single time-point; type: biochemical
T1 sequence (Q9H8H3 1-244): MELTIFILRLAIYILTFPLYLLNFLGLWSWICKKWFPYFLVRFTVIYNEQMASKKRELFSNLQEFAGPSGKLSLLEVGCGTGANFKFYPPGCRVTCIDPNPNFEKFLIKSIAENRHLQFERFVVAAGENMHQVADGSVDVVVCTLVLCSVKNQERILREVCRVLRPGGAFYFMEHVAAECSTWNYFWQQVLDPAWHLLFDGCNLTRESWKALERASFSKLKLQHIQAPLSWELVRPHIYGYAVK

[2] = target: T1, METTL7A (TMT1A1; N-GST-METTL7A); experiment: as above; type: biochemical; remark: listed apart in the source
[3] = substrate: C[C@]12CCC(=O)C=C1C[C@@H](S)[C@@H]1[C@@H]2CC[C@@]2(C)[C@H]1CC[C@@]21CCC(=O)O1; experiment: purified protein; conditions: 100 µM SAM, DMPG, pH 7.0, 37 °C
[4] = substrate: C[S+](CC[C@H](N)C(=O)O)C[C@H]1O[C@@H](n2cnc3c(N)ncnc32)[C@H](O)[C@@H]1O; experiment: purified protein; conditions: 250 µM TSL (saturating), DMPG, pH 7.0, 37 °C, varied: cofactor

Molecule: CC(N)c1cccc(Cl)c1Cl (stereo not drawn) [DCMB, 2,3-dichloro-α-methylbenzylamine]
- IC50 [1]: 1.17 µM

Molecule: Nc1ncnc2c1ncn2[C@@H]1O[C@H](CSCC[C@H](N)C(=O)O)[C@@H](O)[C@H]1O [SAH]
- Ki [2]: 53.9 µM

B1: METTL7A (TMT1A1; N-GST-METTL7A) (Homo sapiens) (protein)
chain: MELTIFILRLAIYILTFPLYLLNFLGLWSWICKKWFPYFLVRFTVIYNEQMASKKRELFSNLQEFAGPSGKLSLLEVGCGTGANFKFYPPGCRVTCIDPNPNFEKFLIKSIAENRHLQFERFVVAAGENMHQVADGSVDVVVCTLVLCSVKNQERILREVCRVLRPGGAFYFMEHVAAECSTWNYFWQQVLDPAWHLLFDGCNLTRESWKALERASFSKLKLQHIQAPLSWELVRPHIYGYAVK
- Km [3]: 39.4 µM
- Km [4]: 53.73 µM

B2: METTL7B (TMT1B1; N-GST-METTL7B) (Homo sapiens) (protein)
chain: MDILVPLLQLLVLLLTLPLHLMALLGCWQPLCKSYFPYLMAVLTPKSNRKMESKKRELFSQIKGLTGASGKVALLELGCGTGANFQFYPPGCRVTCLDPNPHFEKFLTKSMAENRHLQYERFVVAPGEDMRQLADGSMDVVVCTLVLCSVQSPRKVLQEVRRVLRPGGVLFFWEHVAEPYGSWAFMWQQVFEPTWKHIGDGCCLTRETWKDLENAQFSEIQMERQPPPLKWLPVGPHIMGKAVK
- Km [3]: 32.5 µM
